Earlier results on one substance are cited in article PMC11893814.

For this data set, the target named is wild-type microtubule GTP cap (Homo sapiens) (UniProt P68363).
Sequence of UniProt P68363 (P68363 whole entry, chain 1 of 2): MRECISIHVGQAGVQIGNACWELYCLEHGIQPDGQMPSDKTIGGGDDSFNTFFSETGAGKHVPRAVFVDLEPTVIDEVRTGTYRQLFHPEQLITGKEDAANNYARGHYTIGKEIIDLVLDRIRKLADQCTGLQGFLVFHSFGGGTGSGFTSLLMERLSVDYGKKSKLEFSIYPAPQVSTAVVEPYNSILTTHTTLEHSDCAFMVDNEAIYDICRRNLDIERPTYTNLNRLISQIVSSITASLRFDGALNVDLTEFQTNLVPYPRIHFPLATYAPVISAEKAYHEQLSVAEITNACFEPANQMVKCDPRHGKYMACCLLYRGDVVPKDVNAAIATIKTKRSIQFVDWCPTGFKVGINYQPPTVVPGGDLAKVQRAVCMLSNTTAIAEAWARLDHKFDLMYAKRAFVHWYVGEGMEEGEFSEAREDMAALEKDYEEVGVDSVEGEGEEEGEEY
Sequence of UniProt P68363 (A8K854 whole entry, chain 2 of 2, further chain): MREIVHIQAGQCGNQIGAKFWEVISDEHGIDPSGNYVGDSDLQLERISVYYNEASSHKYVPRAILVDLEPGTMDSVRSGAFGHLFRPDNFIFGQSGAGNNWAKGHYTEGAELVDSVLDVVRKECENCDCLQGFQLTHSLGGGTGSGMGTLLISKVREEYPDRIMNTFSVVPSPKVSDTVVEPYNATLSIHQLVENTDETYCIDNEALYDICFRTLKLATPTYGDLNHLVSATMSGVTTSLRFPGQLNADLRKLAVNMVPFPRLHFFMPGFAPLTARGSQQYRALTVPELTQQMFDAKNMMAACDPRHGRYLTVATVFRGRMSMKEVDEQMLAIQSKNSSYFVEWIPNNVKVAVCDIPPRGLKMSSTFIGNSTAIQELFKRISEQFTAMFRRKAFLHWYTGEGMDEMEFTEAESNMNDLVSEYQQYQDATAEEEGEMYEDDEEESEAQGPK

Broadly, the Kd is a measure of binding affinity in units of concentration. For the substance EB3 (from UniProt Q9UPY8), the dissociation constant (Kd) was 39.6 nM.
